Experimental findings from the NTF2 design screens of Basanta et al. (2020) are described below.

A short description of the data set: protease stability score; higher = more stable; yeast display proteolysis, trypsin and chymotrypsin.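 Also: relative to predicted unfolded state with 0 unfolded-like and 1 meaning tenfold more protease.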
As for “HELKEELDEKLEFILRVFRTGNEERWRRLFDPEVRIEVGDKEIHGMDEALHFASHMRVEFKEMNFEDIRIVGEWVTLHIRVRGTIVYNGKKVERSMHIIIIILKIDGKWHIHEFRIH”, the protease stability score came to 1.44. In the case of “TDEEELAERLARIMIHLFLTGNEEIMSKLLDPDVRSWVNGQEFHGREEEAKVVRKMIEEWRFHDMHIHDVHVINGRLHVDSRVDNRVGDKTIDIRTELRFDVVNGRLKILEWHFT”, the protease stability score was 0.341. The value for “TEDEKRYDDLVRHMLEVHRTGDEDLLERLLDPNARFLIDGVEYHGREQALEIARELRITSIRIRRIEFYGDKVTMDTEIDGRVNGRRRDTRVKEIWLKVDGKWYLESMEIH” was 1.43; that for “SEWEEISRKISRDWTEWLETGDFETFMNYVDPNARYRQGDKDLHGMETLHRYIYHMRMHIRIRRIDHQGDYILIDGELELRQGDKTHRFESIIYIIVIDGKLRRFEIRER” was 0.733. “HEHEELIRWAVELLEHNTRTGDEETLIRLADPNVRMIFDGRDLVGRDWLLEFEERLGADHVELEFRHVRIIDGRVHVNGIMRHEFDGVRVERRTTIIVKKINGRWNNRTVEFR” yielded a protease stability score of 0.529.

For “SEDEKITKEATRIFLENLHTGDERTMDDNLDPNVLLIINGVELVGREFIVTWLKELRLKRQDIKSIDMRLINGVAHVFMDIHVEGNYNGRDRRSDEELRYIIRKIDGRWSIESVEIHIR”, the protease stability score is 1.22.

Regarding “DEEEKLRQWIFHLWIKILETGDEKLLEELADPHVLHRFDGVHAHGRERMSSWLRELIERLGVKVHELNSIHIYGDKARINFQVHVDGQRKEMTIHMLMVDGKIKSTQLDRREH”, the protease stability score was 1.09. Then “NELEKHLREMTREMLEAWRTGDFDHLEHLADPHVRIETIYNGQREEFHGREWLIKAVERLDRLMGIDHIYFQEWTTIGDFVDVDLRTQVGDKRIRLHMELNVVNGRIKFHRIEVE”, with 1.24. The value for “HEEEEREKEISDTFLMAWRTGDWKFFHELADPHVRVEIGDKRFIGRELLTKHMRHNVNKVKGMTHTLTHIIIQGDKIHLDGELIVDGRSHKVDFHIIVIDGRLHSLHVIIS” was 0.574. The value for “SEEEKHLEHMARMMVEALMTGDEKLLNHLLDPNVRVEHSINGVEITDHGWHLYVKWVRDLGIDHIYFKDMHHQGNKTHLNIEIEINGKHIETRLLLVIVNGRIHIIKHEIK” was 2.08; that for “KELEEHELRLAKDMSKVIETGDEERLRRLADPHVKVHINGKTRHGREWMSHLLNLMLTELRVRHLHIKDVFEVNGVAHSETELDGEVNGREIELHTEIILVVVNGKIQRLEIRIE” was 1.06; that for “DEDERETRFIIKLLLETIQTGDEKTFEELLDPSVRLVVGDKIIHGRDVLSEFFSHARFHRIEIHNMESQGDKAHIDIRVDGKFNGKRKTTEVNLHIEKFDGRWRIKEFRIH” was 2.08. With “SETEEEARKMIELLVEAWLTGDEHTLERMLDPHVKIIIDGRELHGWKVLAERIKHLRYEHFEFELHSVETQGDKIIIRGIVRSDLRVGDKEEHTHLEVIIIITKVNGRWVVHSIEIR”, the protease stability score amounted to 1.68. Sequence “DEEHKEVREHIETSIQALRTGDWELLSKRMDPHVRVIVGDKHLHGREEAHKMLEEWFKRMGIDHFHIKSIEIQGDKTDVEGHMYFNGVSRDTRLYEVWVNGRLKSLTIEMR” yielded a protease stability score of 0.626. The value for “SDEEKFFEKLLRDILHLWLTGDEDTFHQLLDPNMRSDVDGVDLHGRETVAKFLKERLKHLGIDHVQLESETAIGDKFFINTTISINGVETKMHLHFRVVNGVVHSLEVKVR” was 1.26; that for “DEDLQFLKNFKEEWIKNLRTGDEDAVQKLADPNVRIDIDGKELHGREVMLEMLHQETNELRLKDVKDKHMTVQGDKIHWDGILIITINGKEIRRRVHIFVQKVDGRWVIESEIHR” was 0.942.

As for “DEQEEDDREAVKHALEVWETGDERVLWELFDPHVRIIVGDKHVHGREHFLRLTHELKRKVKGIRFDIRHVNLYDGRIEMDTDLEVDGRKHKTTIIAKKVNGRWILESIEIR”, the protease stability score worked out at 1.45.

As to “SEEEDLFRKIIELLLRLSKTGDEETWRRLMDPHARLEINGRIFHGREYAERFMTQFDHIHSIEIKDMHIYNGKVEEHGHVDGIVNGRRTKHDMVFILVKVDGVWLIEEVVVR”, the protease stability score turned out to be 1.39. “DEDEEIAVKSYKKIVEDFFTGDEDSARRNADPDVLLRVGDKELHGWKHMTSWVHELRIHRIDIREIRVIGDKMFLHGEVDSEIDGKRLEFHLKLRMEKVDGRWIIRKIEIK” showed a protease stability score of 1.49. For the sequence “DHREKELEKMARIFIHNLVTGDWRSLEKLADPDAKSEVIIGDKHIEHVGRHEVWKMLFEIRWEQVEVHDIRIYNGRVEIDGHMKGDIDGRRIETDTKIRLTIVNGVVQTFHMEIR”, the protease stability score turned out to be 2.23.

For the sequence “SEEEHRMREILDLLTESFHTGDERIHLEYADPHARFDIGDKHIHGRELFTKRWKEWLERFKNITLQLRIDDVSIIDGVFVVEGTLTIRINGVEIERDTHIFLYIVDGRVSTMKRTIH”, the protease stability score was -0.116. The value for “DDEERIWRELLEDLLKALKTGDEHRIQDLLDPHVRLEIGDKEFHGREEVTEWFRRLMEKIKGAVFHIHIHDFRIQGDKLLADTRLIIHIGDKHEESETEMIVLKVNGRWLIDEIRVK” was 2.59; that for “DEDTRDAEQFLKELLHNQITGDEESEDKLADPNVRIIINGREIHGRETWIKWRRQARITFEDQRVHSIHMIGDKLVLKIEIDGNLSFNGREIRDTVEIEIVVTKVNGRWVLDQVHFK” was 1.63; that for “HEERDLAMHVIKRFIDSTVTGNEQDLTKLLDPHVRIEQGEYHDHGWKYAQLMIERFRNVRIELRIHFIRVQGDKVQVDIDWEVHIGDKVISSRLEMYIIKVNGVWLIRYVIFE” was 0.854. Then “SEEEELDRRITDLIVHARKTGDEEMWQRYADPHVRLFWFQGDYLLMIVGREDASKWMRHLLEELGIKHIEFKHIDIFDGRSHIDSRVKVNGKERETRHQFVVVNGRITEVREKID”, with 0.415. Then “DEEHHDLQEFFERLKRHWETGDWKEITKNFDPNVKERYGDFEVHGREEAIRKAKEMRYNDMDIRHRRVIDGRAYLHTEMDGNFDGRERRFEVEMIITKIDGVWRIKHVTFK”, with 1.06; and “DEDDEDTRRLLKLLSDAEETGDEELLRHLADPHVRVHVGDKEWHGWDAFVRFLRHIRIETFHVRRIRVQGDKVDVDGQTVVTINGRRHELKTTIILIKIDGQWVIEKLTIH”, with 1.79; and “DEREEASERMAELIVHLFETGDEDLIRRMVDPHVRWEFNGREIMGRELTTHVLHEIYHRVKNIRYRIESLDIQGDWLLVNSRLHVNGRTIEIHLIVEKVNGRWTLRELIVKVD”, with 1.65. Sequence “DKREEIAREIWKMFDDAVFTGNEETLERMADPNVRFIIGDKHLIGMRDEIHWLREIRVHIELSRIHDIHLQGDKIHIDSHNDIEIIINGQERRHETKYMIDIRKVNGRWIIERVEIR” returned a protease stability score of 0.818.

The sequence “SEIEKESEKIWKIWFHNLETGNWREIARLFDPHARWRELVDGREVNIVGREEVVRLLSENSEHLRLDDFRETSVRVIGDFVRSDVEMVGTVDGQHERRRVEVIIVTINGRLHSITITHL” returned a protease stability score of 1.15. Then “DTEDHLSHRVLEYHQEVEKTGDWHELFNNIDPHARMSVGDKRYHGMESMSKWLSRIKNAKIDEEHIEIQGNKIILHGTINVDGVRIESIILSLKVDGRWLRKEVRFH”, with 0.19; and “DENRQDLEHFHKVLLKLLETGDENMIARLADPNVREDVNGVDNHGMKDLERTLREIHERVDHIHHVHIHRVDVINGRAHLDGTLRGHVNGVSFQHRETVIYLKFNGRWVLHSVHLK”, with 1.2; and “NEREKLVLDLAMRWFEAWLTGDEHLLHLLADPNVRFIYGDKHLIGMDELHRFLREIRIISRDRHFEDKRVIGDKVELDVRLRGEVDFNGRRLDIDLTVHIESHIINGKQHTSRMETI”, with 1.07. The sequence “EEEKETERIASEHHLEHLRTGDEETYLRNFDPHVRLDIDGREFHGWEFFRHFLRRMGFKHVRHIQIHHSELFNGRLFFDGTIRFRVGDKEDTFKVEVVDVKFNGRWHIQEFRVK” registered a protease stability score of 1.43.
